Results reported in patent US9145555B2, “Integrated—ligand-responsive microRNAs” (California Institute of Technology, priority 2009, dated 2015).

What was measured:
xanthine aptamer = conditions: cited from earlier work
[1] = test system: transcript encoding the green fluorescent protein (GFP) in HEK 293 cells stably expressing GFP; assay: Cell culture assay for miRNA activity (GFP silencing, transient transfection, flow cytometry); format: cell-based, human; conditions: for GFP silencing: single copy, absence of ligand; for response of GFP levels to theophylline: transient transfection with varying theophylline concentrations; for response of GFP levels to hypoxanthine: 5 mM hypoxanthine; for response of GFP levels to tetracycline: 100 μM tetracycline
Source text: To examine the relationship between bulge size in the basal segments and gene silencing, we developed a general cell culture assay for miRNA activity (FIG. 1D). miRNAs designed to target a transcript encoding the green fluorescent protein (GFP) were inserted into the 3′ untranslated region (UTR) of a constitutively-expressed transcript encoding the fluorescent protein DsRed-Express. Plasmid DNA encoding the DsRed-Express construct was transfected into HEK 293 cells stably expressing GFP. The level of miRNA-mediated gene silencing was determined by flow cytometry analysis, where DsRed-Express levels were used to distinguish between transfected and untransfected cells. Using the cell culture assay, miRNAs with the same bulges as in the in vitro experiments were tested for silencing efficiency. […] Therefore, proper Drosha processing and gene silencing correlate with the size of the bulge in the miRNA basal segments.
293 and Flp-In-293 cells were maintained in DMEM supplemented with 10% FBS at 37° C. in a 5% CO2—humidified incubator. Transient transfections were conducted with Fugene 6 (Roche) according to the manufacturer's instructions one day after seeding. Immediately prior to transfection, the media was supplemented with the appropriate ligand at the specified concentration. Ligand concentrations were selected to maximize the regulatory response without severely compromising cell viability over the course of the transient assays. The media was replaced two days post-transfection. Three days post-transfection, the cells were trypsinized and subjected to flow cytometry analysis on a Cell Lab Quanta SC MPL (Beckman Coulter) and the resulting data was analyzed using the Flowjo software (Tree Star). Cells were initially gated for viability by electronic volume and side scatter. GFP and DsRed fluorescence of viable cells were measured through a 525 nm and […] band pass filter, respectively, after excitation with a 488 nm laser. Moderate to high DsRed levels served as a transfection control to gate between transfected and untransfected cells. Transfected cells could be distinguished from untransfected cells with this method even when four miRNAs were present in the 3′ UTR of the DsRed-Express encoding transcript (data not shown). GFP levels were calculated as the median fluorescence of the transfected population divided by that of the untransfected population (Beisel et al., 2008). This normalization approach corrected for the bias from pleiotropic effects associated with each small molecule. All ratios were normalized such that the value for DsRed-Express lacking a miRNA under the same conditions was set to 100%.

endogenous La gene = assay: La transcript levels by qRT-PCR in stable 293-Flp-In cell lines; format: cell-based, human; conditions: four copies; for silencing of La transcript: 112 nt spacer, stable cell lines
Source text: Most of the synthetic ligand-responsive RNA-based regulatory systems are encoded in the target transcript, providing regulation in cis (Suess and Weigand, 2008). However, the regulation of endogenous genes through cis regulatory strategies is currently limiting due to the lack of directed recombination technologies. To test whether ligand-responsive miRNAs provide a trans regulatory strategy for the effective regulation of endogenous genes, we incorporated a mature miRNA sequence against the endogenous La gene into wt (La1) and th1 (La2) (FIG. 9). Four copies of each miRNA separated by the longest spacer sequence were cloned into the 3′ UTR of the transcript encoding DsRed-Express, and the resulting constructs were stably integrated into a single site in 293-Flp-In cells.
(§1) Stable transfection of 293-Flp-In cell lines was performed using the Flp-In recombinase system (Invitrogen) according to the manufacturer's instructions to generate isogenic stable cell lines. Integrants were selected using 200 μg/ml hygromycin B (Invitrogen), whereas stable cell lines were maintained in 50 μg/ml hygromycin B. The procedure described above for the fluorescence expression analysis of transiently transfected cell populations was used to analyze the stable cell lines with notable exceptions. Normalization of flow cytometry data to untransfected cells was not performed as all cells express the integrated construct, and all data was normalized to cells lacking a miRNA and grown in the absence of theophylline. Normalization to cells grown under the same conditions was not performed since theophylline differentially affected the two negative controls: no miRNA and a self-targeting miRNA lacking the theophylline aptamer.
Transcript levels were measured by qRT-PCR under either transient or stable transfection conditions. […] Samples were prepared in quadruplicate using the iQ SYBR green supermix and data were analyzed using the iCycler iQ software. […] The reported sample error was calculated using the following expression: […]

[2] = test system: transcript encoding DsRed-Express; assay: DsRed-Express levels in stable cell lines with La-targeting miRNAs (flow cytometry); format: cell-based, human; conditions: four copies; for response of DsRed levels to theophylline: 1.5 mM theophylline; for DsRed-Express down-regulation in cis: stable cell lines
Source text: To assess the capacity for ligand-responsive miRNAs to regulate gene expression in cis, we measured expression levels for the transcripts harboring the ligand-responsive miRNAs targeting GFP and La. DsRed-Express levels were quantified by flow cytometry under similar conditions as the trans-targeted gene silencing experiments. […] Transcript analysis confirmed that the predominant regulatory mechanism of ligand-responsive miRNAs in cis is mRNA destabilization (FIG. 10).
as §1

O=c1[nH]cnc2nc[nH]c12 [Hypoxanthine]
affinity for the xanthine aptamer relative to xanthine (xanthine aptamer): comparable affinity

Cn1c(=O)c2c(ncn2C)n(C)c1=O [caffeine, reference compound]
response of GFP silencing to caffeine ([1]; 1 mM caffeine, miRNAs th1 and wt): insensitive

B1: La1: SEQ ID NO. 33; La-targeting miRNA with basal segments similar to miR-30a, no aptamer (nucleic acid)
chain: TCTAGAGTTTGACAGTGAGCGCTGGAAATCAGTGAAGATAAAATAGTGAAGCCACAGATGTATTTTATCTTCACTGATTTCCATTGCCTACTGCCTCGGACTGAATTCATAGGGCCC
modifications: expressed or natural sequence
notes: 33; La-targeting miRNA with basal segments similar to miR-30a, no aptamer
silencing of La transcript (endogenous La gene): relatively strong silencing
response of DsRed levels to theophylline [2]: not observed
DsRed-Express down-regulation in cis [2]: substantial DsRed-Express down-regulation

B2: wt: SEQ ID NO. 18; GFP-targeting miRNA with basal segments similar to the natural miRNA miR-30a, control (nucleic acid)
chain: TCTAGAGTTTGACAGTGAGCGAGCACAAGCTGGAGTACAACTATAGTGAAGCCACAGATGTATAGTTGTACTCCAGCTTGTGCCTGCCTACTGCCTCGGACTGAATTCATAGGGCC
GFP silencing [1]: silence GFP with comparable strength
response of GFP levels to theophylline [1]: insensitive to theophylline

B3: La2: SEQ ID NO. 34; La-targeting miRNA with the theophylline aptamer in the basal segments (nucleic acid)
chain: TCTAGAACGGGTCCTGATACCAGCGTGAGCGCTGGAAATCAGTGAAGATAAAATAGTGAAGCCACAGATGTATTTTATCTTCACTGATTTCCATCGCCTACGCCCTTGGCAGCAGGGCCC
modifications: expressed or natural sequence
notes: 34; La-targeting miRNA with the theophylline aptamer in the basal segments
response of La transcript levels to theophylline (endogenous La gene; 1.5 mM theophylline for over one week): theophylline-dependent increase in La transcript levels
silencing of La transcript (endogenous La gene): relatively strong silencing
response of DsRed levels to theophylline [2]: increase in DsRed levels in the presence of theophylline
DsRed-Express down-regulation in cis [2]: substantial DsRed-Express down-regulation

B4: xa1: SEQ ID NO. 31; GFP-targeting miRNA with the binding core of the xanthine aptamer (nucleic acid)
chain: TCTAGAACGGGTCCGTGTATTACCTGAGCGAGCACAAGCTGGAGTACAACTATAGTGAAGCCACAGATGTATAGTTGTACTCCAGCTTGTGCCCGCCTAGGTCGACGGGCCC
modifications: expressed or natural sequence
GFP silencing [1]: completely abolished silencing

B5: th1′: SEQ ID NO. 24; theophylline-responsive non-targeting miRNA, scrambled mature miRNA sequence (nucleic acid)
chain: TCTAGAACGGGTCCTGATACCAGCGTGAGCGAGCACAAGCTATCAACATGAGGTAGTGAAGCCACAGATGTACCTCATGTTGATAGCTTGTGCCCGCCTACGCCCTTGGCAGCAGGGCCC
GFP silencing [1]: abolished silencing
GFP silencing versus miRNA copy number ([1]; up to four copies separated by 112 nt spacer): no effect on GFP levels

B6: m1: SEQ ID NO. 19; GFP-targeting control miRNA with a large bulge in the basal segments, no aptamer (nucleic acid)
chain: TCTAGAACGGGAAGTAATTACAGTGAGCGAGCACAAGCTGGAGTACAACTATAGTGAAGCCACAGATGTATAGTTGTACTCCAGCTTGTGCCTGCCTACTGCCACATAGGGCCC
response of GFP levels to hypoxanthine [1]: no effect

B7: th2: SEQ ID NO. 25; th1 altered to target a different location in the GFP transcript (nucleic acid)
chain: TCTAGAACGGGTCCTGATACCAGCGTGAGCGCCAAGAAGATGGTGCGCTCCTGGAGTGAAGCCACAGATGTCCAGGAGCGCACCATCTTCTTGTCGCCTACGCCCTTGGCAGCAGGGCCC
modifications: expressed or natural sequence
notes: 25; th1 altered to target a different location in the GFP transcript
GFP silencing [1]: preserved silencing
response of GFP levels to theophylline [1]: preserved silencing and the theophylline response

B8: tc1: SEQ ID NO. 30; GFP-targeting miRNA harboring the tetracycline aptamer (nucleic acid)
chain: TCTAGAACGGGTCCTAAAACATACCGTGAGCGAGCACAAGCTGGAGTACAACTATAGTGAAGCCACAGATGTATAGTTGTACTCCAGCTTGTGCCTGCCTACGGAGAGGTGAAGAATACGACCACCTAGGGCCC
modifications: miRNA
notes: 30; GFP-targeting miRNA harboring the tetracycline aptamer
response of GFP levels to tetracycline [1]: tetracycline-dependent increase in GFP levels
GFP silencing [1]: down-regulated GFP

B9: m2: SEQ ID NO. 20; GFP-targeting control miRNA with varied bulge size, no aptamer (nucleic acid)
chain: TCTAGAACGGGAAACACAGTGAGCGAGCACAAGCTGGAGTACAACTATAGTGAAGCCACAGATGTATAGTTGTACTCCAGCTTGTGCCTGCCTACTGCCTCGGGCCC
response of GFP levels to tetracycline [1]: negligible tetracycline dependence

B10: xa2: SEQ ID NO. 32; GFP-targeting miRNA with xanthine aptamer binding core and loop, inverted (nucleic acid)
chain: TCTAGAACGGGTCCGAGGTCGACGTGAGCGAGCACAAGCTGGAGTACAACTATAGTGAAGCCACAGATGTATAGTTGTACTCCAGCTTGTGCCCGCCTACGTGTATTACCCAGGGCCC
modifications: expressed or natural sequence
response of GFP levels to hypoxanthine [1]: hypoxanthine-dependent increase in GFP levels
GFP silencing [1]: substantial GFP silencing
